# According to the nanobody polyreactivity screen of Harvey et al. (2022):
# Test: yeast display, Sf9 membrane polyspecificity reagent, FACS + sequencing; frameworks hold sequencing errors
# Summary of the method: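 Nanobodies came from a synthetic yeast display library in Saccharomyces cerevisiae BJ5465, induced with galactose for 36–48 hours and stained for 1 hour at 4 °C with 10% biotinylated, detergent-solubilized Sf9 membrane reagent. Cells were enriched on streptavidin microbeads and then FACS-sorted, with low and high (top ~1%) gates set on anti-HA fluorescence for expression and streptavidin fluorescence for reagent binding. Each polyreactivity label reflects the gate a clone came from. Genes were amplified by colony PCR, sequenced by MiSeq 2 × 250 and filtered by CDR length.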
row,Sequence,polyreactivity (PSR sort gate)
1,QVQLVESGGGLLQAGGSLRLSCAASGRTFRAYTMGWYRQAPGKERELVAAISTPGGSTYYADSVKGRFTISRDNAKNTVYLQMNSLKPEDSAVYYCAAGTFYYWLSYDYWGQGTQVTVSS,low polyreactivity
2,QVQLVESGGGLVQAGGSLRLRCAASGRNIHWYAMGWSRQAPGKEMELVAAITGSGGRTSYADSVKGRFTISRDFAKNTVYLQMNSLKPQDTAVYYCAKRATWYTVPREGYWGQGTQVTVSS,high polyreactivity
3,QVQLVESGGGLVQAGGSLRLSCAASGYNFVRNAMGWYRQAPGKERELVAAISGSGGSTYYADSVKGRFTISRDNAKNTVYLQMNSLKPEDTAVYYCAADYATVTWRGIAYDYWGQGTQVTVSS,low polyreactivity
4,QVQLVESGGGLVQAGGSLRLSCAASGRTFRHDGMGWYRQAPGKERELVAAISRSGGRTYYADSVKGRFTISRDNAKNTVYLQMNSLKPEDTAVYYCNAPYDVTTYAFDYWGQGTQVTVSS,high polyreactivity
5,QVQLVESGGGVVQAGGSLRLSCPASGSIFETYVMGWYRPAPGIERELVAAINSGGSTNYADSVKGRFTISRDNAKNTVYLQMNRLKPEDTAVYYCNADWFTPAQPWYRSFIRYDYWGQGTQVTVSS,low polyreactivity
6,QVQIVESGGGLVQAGGSLRLSCAASGSIFQGYAMGWYRQAPGKERELVAAITNRGGNTYYADSVKGRFTISRDNAKYSVYLQMNSLKPEDTAVYYCAADPRYSHSFSGYYDYWGQGTQVTVSS,high polyreactivity
7,QVQLVESGGGLVQAGGSLRLSCAASGSTFYSNAMGWYRQAPGKERELVAGIDTSDGSTNYADSVKGRITISRDNAKNTVYLQMNSLKPEDTAVYYCNTTLRDSRQYVDRAPYTRYDYWGQGTQVTVSS,low polyreactivity
8,QVQLVESGGGLVQAGGSLRLSCAASGRTFFNYAMGWYRQAPGKERELVAAISFSDGSTYYADSVKGRFTISRDNAKNTVYLQMNSLKPEDTADYYCAAQPGRRAGRSGFDYWGQGTQVTVSS,high polyreactivity
9,QVQLVESGGGLVQAGGSLRLSCAASGRIFGGYTMGWYRQAPGKERELVAAITGSGGRTYYADSVKGRFTISRDNAKNTVYLQMNSLKPEDTAVYYCNTVYRYRYYWGQGTQVTVSS,high polyreactivity
10,QVQLVESGGGLVQAGGSLRLSCAASGSTFEYYAMGWYRQAPGKERELVAGISTGGSTNYADSVKGRFTISRDNAKNTVYVQMNSLKTEDSAVYYCKRDWALYVFCRHYHAYYSWGQRTQVTVSS,low polyreactivity
11,QVQLEESGGGLVQAGGSLRLSCAASGSIFRNYAIGWYRQAPGKEREFVAANTYSGGSTHYADSVKGRFTISRDNAKNTVYLQMNSLKPEDTAVYYCAADYYWRVHYGYWGQGTQVTVSS,high polyreactivity
12,QVQLVESGGGLVQAGGSLRLSCAASGSIYYGKTMGWYRHAAGKEWELDAAISSGGSTKYADSVKGRFTISRDNAKNTVYLQMNSLKPEDTAVYYSAADLPRYWVTWMDYWGQGTQLTVSS,low polyreactivity
13,QVQLVESGGGLVQAGGSLRLSCAASGGTFVVYAMGWYRQAPGKEREFVAGISWGGGRTYYADSVKGRFTISRDNAKNPVYLQMNSLKPEDTAVYYCAVRREIQYYRKFDYWGQGTQVTVSS,low polyreactivity
14,QVQLVESGGGLVQAGGSLRLSCAASGITFVYYAMGWYRQAPGKERELVAAISKNGGSTYYADSVKGRFTISRDNAMNTVYLQMNSLKPEDTAVYYCAAEEGYPWVRYNYWGQGPQVTVSS,high polyreactivity
15,QVQLVESGGGLVQAGGSLRLSCAASGRIFYDYTMGWYRQEPGKERELVAAINSGGGSTYYADSVKGRFTISRDNAKNTVYLQMNSLKPEVSAVYYCNADGQWNIWEYDYWGQGTQVTVSS,high polyreactivity
16,QVQLVESGGGLVQAGGSLRLSCAASGRIFGYYAMGWYRQAPGTERELVAAITYNGASTYYADSVKGRFTISRDNAKNTVYLQMNSLKPEDTAVYYCAVLTRYGGYGYWGQGTQVTVSS,high polyreactivity
17,QVQLVESGGGLVQAGGSLRLSCAASGFIFKHYAMGWYRPAPGKERELVAAITRSGGRTYYADSVKGRFTISRDYAKNTVYLQMNSLKPEDTAVYYCNVDGKKRHYRHYYLSAYDYWGQGTQVTVSS,high polyreactivity
18,QVQLVESGGGLVQAGGSLRLSCAASGSIFTGNAMGWYRQAPGKERELVAAITNGGITNYADSVKGRFTISRDNAKNTVYLQMNSLKPEDTAVYYCAADYVDFYSFRRFDYWGQGTQVTVSS,low polyreactivity
19,QVQLVESGGGLVQAGGSLRLSCAASGITFYLYAMGWYRQAPGKERELVAAISSSGGRTYYADSVKGRFTISRDNAKNTVYLQMNSLKPEDTAVYYCAARRYGVPPTYDYWGQGTQVTVSS,high polyreactivity
20,QVQLVESGGGLVQAGGSLRLSCAASGSTFYYNAMGWYRQAPGKERELVAAITSSGGRTYYADSVKGRFTISRDNAMNTVYLQMNSLKPEDTAFYYCAKREASSRWPYDYWGQGTQVTVSS,low polyreactivity
21,QVQLVESGGGLVQAGGSLRLSCAASGLIFYGNAMGWYRQAPVKERELVAAISRRGGRTYYADSVKGRFTISRDNAKNTVYLQMNSLKPEDTAVYYCAAGVPKNGQAGYDYWGQGTQVTVSS,high polyreactivity
